Experimental data reported in the supplement of paper PMC12764529.
± gives the half width of the 95% confidence interval.

Tests used:
[1] = folding stability dG unfold from chymotrypsin proteolysis; higher = more stable
Outline: (§1)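 Mini-proteins designed to be under 80 residues and free of cysteine were carried in a PA-tagged cDNA display construct and digested with trypsin and with chymotrypsin. Each protease was applied at 11 threefold-diluted concentrations, alongside a no-protease condition, before sequencing. K50 came from Bayesian fitting of the sequencing counts, and unfolding free energy was obtained by comparing it with a sequence-predicted unfolded-state K50 and a shared folded-state K50, for each protease separately or for both together. Designs were retained only if their AlphaFold2 dimer inter-PAE exceeded 15.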

[2] = folding stability dG unfold (combined trypsin and chymotrypsin); higher = more stable
Outline: as §1

Sequence	folding stability dG unfold [1]	folding stability dG unfold [2]
SAGGSAGGSSEVIEKLLELNPDVEVVSVTPTPNGVTVTVATKEGGEETVSSAELEKLGVKIRLSAGGSAGGS [r12_3_JUSTAS]	0.282 ± 0.1 kcal/mol	0.1 ± 0.28 kcal/mol
SAGGSAGGSTADALKDLPPGAKIEVEPHPIPNEDGWVYRQHYIKIEDPNKTVELPVIIPIPLPSAGGSAGGS [r12_892_TrROS]	-0.0369 ± 0.39 kcal/mol	-0.0244 ± 0.37 kcal/mol
SAGGSAGGTREIELPGMKISVQKDPNQGKKKIEVEFPNGEEFTMDPGKPPDDLPPPFRRALKEISAGGSAGG [r6_749_TrROS]	-0.176 ± 0.31 kcal/mol	< -1 kcal/mol
SAGGSAGGWIKLDGKEVYIVIPDGNPEQIAKELKEQFPNGNIKPHPGQNAEEAAKKNKRVIWIPSAGGSAGG [r6_680_TrROS]	0.771 ± 0.16 kcal/mol	0.284 ± 0.37 kcal/mol
SAGGSAGMPRLVEIEVPLPPDAKDPEIKEKIIKTPEGYEYKTIKETSDPSPSSLRKIIMEKKPLKKSAGGSA [r15_852_JUSTAS]	-0.197 ± 0.99 kcal/mol	< -1 kcal/mol
SAGGSAGMRMQIQIPNDEIPPEKIEDALQEYGWNPTDVYPPDNGVSVTFEMDPGDMNKLMEAIKKLSAGGSA [r15_161_TrROS]	0.843 ± 0.29 kcal/mol	0.107 ± 0.35 kcal/mol
SAGGSAGMVVEPREVVIKLKPPNGPETTLEVELVEVEPDSLVLRNGDTPIVLPPDAEDVEILEVTGSAGGSA [r15_510_JUSTAS]	0.401 ± 0.088 kcal/mol	0.0501 ± 0.22 kcal/mol
SAGGSAGPMPSTVTTLATAPLPDGTLVVTTLERTPDSVTRTTTTYKPADGSPLGTASTTYPAPAALSAGGSA [r15_716_JUSTAS]	0.808 ± 0.15 kcal/mol	-0.0279 ± 0.14 kcal/mol
SAGGSAGSVPSIVIESYDPEKGIVTVSYPATGATYTVEVPPGSTSLTVTVTDADGTPRTFTFPLPGSAGGSA [r2_132_JUSTAS]	5.31 ± 0.1 kcal/mol	5.36 ± 0.12 kcal/mol
SAGGSAHPVQFPNGQEFPIRNPKNGKDFKIRMEQEDGPMRAEIEYPGGGKKRRIDGPMSLEEALKQSAGGSA [r15_234_TrROS]	0.509 ± 0.12 kcal/mol	-0.0891 ± 0.24 kcal/mol
SAGGSAITLEDIRNMPIEEIAKEMQDHFPNGQKQPIEFEYPDGRKLRIKAEYPPNGEPKIDIEPVDSAGGSA [r15_857_TrROS]	0.139 ± 0.14 kcal/mol	< -1 kcal/mol
SAGGSAKLRVAEADFVPGALLEAIEELEKAPAGAEVEVRPGDPLEPKERPVRFVVNEKGELLEVVGSAGGSA [r15_228_TrMRF]	-0.619 ± 0.32 kcal/mol	< -1 kcal/mol
SAGGSAKPGEKLKIRMWNPDGETHEFDVKIPPGVRIRMPDNGQEQTFPPGDEIPFPPNMPIQVEKVSAGGSA [r15_152_TrROS]	0.309 ± 0.086 kcal/mol	-0.121 ± 0.29 kcal/mol
SAGGSAKRVAFIGGGPEIEKVIKEAEKNGFEAVPFDGTPDEFLDALKKNFPDVKQIVFPDGKVLDASAGGSA [r15_712_TrMRF]	0.192 ± 0.13 kcal/mol	-0.134 ± 0.13 kcal/mol
SAGGSALTPAVAERLRELFPDGDLGLKAVKPGEVVVFPNGARNFNTEDAERVVVVLPDGEPLVLDVSAGGSA [r2_166_TrMRF]	0.117 ± 0.14 kcal/mol	-0.241 ± 0.23 kcal/mol
SAGGSAMKAKVVDTSLKESKTKDDSIIVTVTVKYPDGSVTPIVYPVSSSGGISEEEVEKAIKELLESAGGSA [r15_233_JUSTAS]	-0.138 ± 0.057 kcal/mol	-0.661 ± 0.14 kcal/mol
SAGGSAMKTAEVVLDVPEEELEAARAAGEGLSAEVRARMEALAAEVRAAGYDEVVLRLRPSSVPLPSAGGSA [r15_304_JUSTAS]	-0.0294 ± 0.24 kcal/mol	< -1 kcal/mol
SAGGSAMPRSSVSIVSVERAPDGTVTIPTKTTLTTPDGTVTTEESTVTLEVPPGRELSEEEIKKLLSAGGSA [r15_836_JUSTAS]	0.983 ± 0.017 kcal/mol	0.53 ± 0.11 kcal/mol
SAGGSAMTEEEFETEFSDPNNSLSTKVKTTRYLEGDTPVVKTTYTTEDPNTGSTYTTEKVTVIPKKSAGGSA [r15_960_JUSTAS]	-0.218 ± 0.18 kcal/mol	-0.891 ± 0.29 kcal/mol
SAGGSAMVVPVASEEEARAVAEEAAARGEPVVIAFPGGRALVVETAAAPTPEPVLRVEEREVPPLLSAGGSA [r15_761_JUSTAS]	0.744 ± 0.0083 kcal/mol	0.216 ± 0.034 kcal/mol
SAGGSASTREVGDKTLTVTPIKLPNGTNLVLLRTFDPATGKVPVLAFPPEEGNPLGESVLPASELLSAGGSA [r15_671_JUSTAS]	-0.654 ± 0.14 kcal/mol	< -1 kcal/mol
SAGGSASVSVTELSPEERAALEAAGVEVPDDRPRVVETRTVTPAGGAVVTVRVLPEPPLSPEELAASAGGSA [r15_322_JUSTAS]	0.311 ± 0.013 kcal/mol	-0.127 ± 0.066 kcal/mol

Sequence	folding stability dG unfold [1]	folding stability dG unfold [2]
SAGGSASVSYDPTPGPTRRTTTLLETEEVGPNLKRVKTKVTLFPSDGVPTTSTVTELDLVPPPELPSAGGSA [r15_1035_JUSTAS]	0.527 ± 0.057 kcal/mol	0.128 ± 0.11 kcal/mol
SAGGSETLELTIEIPGLGQPVSARSTSFDPEKGLWTAEMKSPVPGLRRTLTYDPVTGTVSSTTTLLSAGGSA [r2_147_JUSTAS]	0.341 ± 0.13 kcal/mol	0.108 ± 0.13 kcal/mol
SAGGSGDSMLVPVSESTSSYPPSGIVRSTKTILDPKKGGIITETTTTTLTPDGNPLSTTPSTTVKESAGGSA [r2_253_JUSTAS]	0.344 ± 0.032 kcal/mol	-0.244 ± 0.23 kcal/mol
SAGGSGMWTPKQVKLLAEPGKSKTITIPGPVSEEEINALLNAGEPVIITLPDGTVLKAEKNTITLESAGGSA [r2_33_JUSTAS]	0.138 ± 0.084 kcal/mol	-0.371 ± 0.15 kcal/mol
SAGGSGSRIVVETITEYEVFETPTGKKKTKVFKTKKIVTETVPMSPADVAAYEAALAEGLGPGALASAGGSA [r2_327_JUSTAS]	0.714 ± 0.16 kcal/mol	-0.234 ± 0.17 kcal/mol
SAGGSIPAEEIADKLRKEPGIPEDDVEVNVERRPGQVTIDVKMDDPDHPQHRRMKKRAQDALQKLLSAGGSA [r2_3_TrROS]	0.186 ± 0.31 kcal/mol	-0.133 ± 0.3 kcal/mol
SAGGSMKDIPAEEIAKLFAAKLGYPILDAKVEKNPVKPVYKLYIVVEEKNPGKKFPREITIPSELLSAGGSA [r2_156_TrMRF]	0.196 ± 0.25 kcal/mol	-0.0499 ± 0.22 kcal/mol
SAGGSMLVTVKFKTLPDGTVDHNPKLLAKVDGPEPDPADPATVRLPVDPAVVAQWPEEVAEEMEILASAGGS [r16_328_JUSTAS]	0.155 ± 0.086 kcal/mol	-0.159 ± 0.074 kcal/mol
SAGGSMPPVVEPATLTLGNGPATQLQRYPGVELVVYRRPPENTILFLSSSGQVLEERKVSPETPVSELSAGG [r13_507_JUSTAS]	-0.318 ± 0.31 kcal/mol	< -1 kcal/mol
SAGGSMSTTLPDGGKVTVYSDPNKPLTLVEVELPDRRLVVLRPVSAPEDGTIVAPVEVRPLEEVEEASAGGS [r16_85_JUSTAS]	-0.0108 ± 0.18 kcal/mol	< -1 kcal/mol
SAGGSMTVSTAPDGTLKVYDPATGKLNPLPVPPVPLVVSRSVQPDKGVVITTTTTPSGEVTVSTTALSAGGS [r16_453_JUSTAS]	0.394 ± 0.06 kcal/mol	-0.159 ± 0.075 kcal/mol
SAGGSMTVVTVEARPPDSSETTVTPLTETAPDGRPRAISLEEARARLAAEPDRPVTRVTVRPEAAASAGGSA [r2_192_JUSTAS]	0.452 ± 0.057 kcal/mol	0.0975 ± 0.15 kcal/mol
SAGGSPAPVRRTVTQLLKVGDKLETRVVEEVVWVPEPPPPPVIPIPEDRGLNEEPVPGTRELTFDAGSAGGS [r8_28_JUSTAS]	0.268 ± 0.19 kcal/mol	-0.195 ± 0.37 kcal/mol
SAGGSPWIEVEIPFPPGMPADELADFIAEELDENGHDVKVDDVEQDPEEGYMKFRVRDGKSVEIPWSAGGSA [r2_242_TrROS]	-0.522 ± 0.28 kcal/mol	-0.521 ± 0.23 kcal/mol
SAGGSSNVGEVTIEIREPVNPERFVDPEYREKAIEEMKEKAEAKAEEIKKENPNVKVTVNISLLEPGSAGGS [r8_183_JUSTAS]	0.659 ± 0.07 kcal/mol	-0.00749 ± 0.36 kcal/mol
SAGGSSSVTEISISRSRQRPDASGRWVTEPVLPPGVYAPTTVVHENGVLTFNTVYDGKPVTETIPLSSAGGS [r16_500_JUSTAS]	0.47 ± 0.13 kcal/mol	-0.0547 ± 0.12 kcal/mol
SAGGSSVKVVKTEVTEDPATGLTTVTETFENGAKATFTIDPATGTVPGETEYPDKKVKYTGYDPLPPSAGGS [r8_363_JUSTAS]	0.588 ± 0.15 kcal/mol	-0.111 ± 0.31 kcal/mol
SAGGSTVTFSSEEEIAKLKPVLKKGNPTTLYLNEVRERLLPNGEPVLVPRDVTRTITLVNGKLTESETSAGG [r13_835_JUSTAS]	-0.685 ± 0.18 kcal/mol	< -1 kcal/mol
SAGGTATVEAALAALPADLPRGSLALHPETGLVEPLEPSPEDAVAYPVNPATGERYPLRVEADAVRLLSAGG [r13_803_JUSTAS]	0.461 ± 0.079 kcal/mol	-0.517 ± 0.15 kcal/mol
SAGGTIKGLPVEEIKDEIRDLFPDHPMKVDIEPIDEDEGYVRVEIEPPRPNGKTQRQEHTIPIRPDDSAGGS [r16_564_TrROS]	-0.579 ± 0.14 kcal/mol	-0.64 ± 0.58 kcal/mol
SAGGYPAEIEASNVKPEELKKAIEDAPWAKELDVEVEDSSPDGSVKAKFKANSKAEVKRFEKAVKDAFSAGG [r13_580_TrMRF]	-0.448 ± 0.34 kcal/mol	< -1 kcal/mol
SAGKLVVPILLEFPPGATLEEAKEAVEEAVEKLKESFPNAPDIEIKLVDVKVFKTEDDRYLVLALIEVGSAG [r5_985_TrMRF]	4.51 ± 0.23 kcal/mol	4.55 ± 0.43 kcal/mol
